{"source": "paper PMC3575693", "target": "needle protein MxiH (Shigella flexneri) (UniProt P0A223)", "sequence (P0A223 whole entry)": "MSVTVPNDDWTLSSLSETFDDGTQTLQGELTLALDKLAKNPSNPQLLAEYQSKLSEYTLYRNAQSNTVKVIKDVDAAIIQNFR", "experiment": "co-purification with isolated needles, Western blot", "data": [{"substance": "IpaB (natural protein)", "values": [{"measurement": "% IpaB in needles relative to the complemented strain, in the ipaDL99P strain", "result": 100, "unit": "%"}, {"measurement": "% IpaB in needles relative to the complemented strain, in the wild-type strain", "result": 70, "unit": "%"}]}]}
